Tests used:
Assay in all cases: pull-down; Ni-NTA resin holding histidine tagged fusion pHtrII from cell-free translation; untagged ppR 0.8 mM and pHtrII 0.08 mM mixed in buffer S (300 mM NaCl, 50 mM MES, 5 mM imidazole, pH 6.5) with 0.1% DDM, 1 h, room temperature; eluted ppR read by absorbance at 498 nm
Conditions in all cases: one partner purified
[1] = biological target: T1, green fluorescent protein-tagged pHtrII 1-114 (cell-free) (Natronomonas pharaonis, UniProt P42259 1-114)
T1 sequence (looked up): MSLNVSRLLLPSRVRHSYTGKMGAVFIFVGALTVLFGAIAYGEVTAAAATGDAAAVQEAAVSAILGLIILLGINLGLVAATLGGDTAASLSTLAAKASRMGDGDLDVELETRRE

[2] = biological target: T2, glutathione S-transferase-tagged pHtrII 1-114 (cell-free) (Natronomonas pharaonis, UniProt P42259 1-114)
T2 sequence (looked up): T1 sequence (looked up)

[3] = biological target: T3, thioredoxin-tagged pHtrII 1-114 (cell-free) (Natronomonas pharaonis, UniProt P42259 1-114)
T3 sequence (looked up): T1 sequence (looked up)

binding activity relative to pHtrII expressed in E. coli [1]: ~50% | binding activity relative to pHtrII expressed in E. coli [2]: ~50% | binding activity relative to pHtrII expressed in E. coli [3]: ~50%
B1: pharaonis phoborhodopsin (ppR), untagged (natural protein, Natronomonas pharaonis, UniProt P42196 1-239, looked up)
chain: MVGLTTLFWLGAIGMLVGTLAFAWAGRDAGSGERRYYVTLVGISGIAAVAYVVMALGVGWVPVAERTVFAPRYIDWILTTPLIVYFLGLLAGLDSREFGIVITLNTVVMLAGFAGAMVPGIERYALFGMGAVAFLGLVYYLVGPMTESASQRSSGIKSLYVRLRNLTVILWAIYPFIWLLGPPGVALLTPTVDVALIVYLDLVTKVGFGFIALDAAATLRAEHGESLAGVDTDAPAVAD
